Test results: patent publication US20090226415A1, “MODIFIED TRIDEGINS, PRODUCTION AND USE THEREOF AS TRANSGLUTAMINASE INHIBITORS” (priority 2001, published 2009)
Substitutions are numbered along the chain they refer to. Numbers in names are those of the source. Like-named read-outs stand apart in the source and are kept apart here.

Experiments:
factor XIIIa [1] = target: T1, factor XIIIa (Homo sapiens, UniProt P00488); details: Table 1, published inhibitors of factor XIIIa; read-out: Affinity (IC50); cited from earlier work
T1 sequence (P00488 39-732 limits assumed): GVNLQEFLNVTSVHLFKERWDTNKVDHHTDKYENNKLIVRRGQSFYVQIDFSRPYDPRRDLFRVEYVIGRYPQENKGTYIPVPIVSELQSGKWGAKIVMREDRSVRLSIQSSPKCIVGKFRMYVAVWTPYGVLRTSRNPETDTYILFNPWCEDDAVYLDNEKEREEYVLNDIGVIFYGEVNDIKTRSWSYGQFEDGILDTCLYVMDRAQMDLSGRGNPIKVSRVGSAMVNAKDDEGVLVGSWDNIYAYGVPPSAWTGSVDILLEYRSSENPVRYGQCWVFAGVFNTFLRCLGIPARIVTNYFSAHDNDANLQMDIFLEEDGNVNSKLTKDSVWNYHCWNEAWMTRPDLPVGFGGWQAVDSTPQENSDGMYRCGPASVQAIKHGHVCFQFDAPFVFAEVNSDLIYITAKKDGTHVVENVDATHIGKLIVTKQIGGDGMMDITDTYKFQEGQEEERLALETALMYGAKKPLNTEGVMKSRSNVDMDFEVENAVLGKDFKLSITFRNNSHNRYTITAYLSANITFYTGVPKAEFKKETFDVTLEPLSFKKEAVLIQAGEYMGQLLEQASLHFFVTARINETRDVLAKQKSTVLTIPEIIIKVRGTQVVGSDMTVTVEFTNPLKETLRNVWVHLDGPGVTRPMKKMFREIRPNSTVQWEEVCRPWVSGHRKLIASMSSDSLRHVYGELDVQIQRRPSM

factor XIIIa [2] = target: T1, factor XIIIa; assay: biochemical; assay type: biochemical; details: for Relative inhibitory effect (%): final variant concentration 5.45 μM
Description: The assay is based on factor XIII being activated to form factor XIIIa by thrombin which is present in the reagents. Factor XIIIa links a specific peptide substrate to glycine ethyl ester with ammonium ions being released. The latter are determined in an enzyme reaction which proceeds in parallel. The extinction at 340 nm was used to measure the decrease in NADH. For the measurement, peptides were present in 50% acetonitrile in a stock concentration of 5 mM. The NADH and detection reagents which were supplied by the manufacturer were dissolved in 3 ml of water, with the activator reagent subsequently being dissolved in 3 ml of NADH reagent. For use, the activator and detection reagents were mixed in a ratio of 1:1. In order to carry out the measurement in microtiter plate format, 100 μl of sample (inhibitor or control buffer), 25 μl of factor XIII (10 U/ml) and 150 μl of working reagent were mixed. The measurement was carried out continuously for 20 min at 340 nm, and at 37° C., in a microtiter plate photometer. For the evaluation, the differences in the values measured after 16 and 20 min were compared.
The relative inhibitory effect (%) was determined at a final variant concentration of 5.45 μM. The inhibitory effect of the recombinant tridegin polypeptide was normalized to 100% (at 5.45 μM).
The above-described Berichrom® assay was used to determine the relative inhibitory effect (%) at a final concentration of the peptides of 7.27 μM. The inhibitory effect of the recombinant tridegin polypeptide, at a final concentration of 7.27 μM, was normalized to 100%.
The relative inhibitory effect (%) was determined at a final variant concentration of 5.45 μM. The inhibitory effect of the recombinant wild-type tridegin poly-peptide (at 5.45 μM) was normalized to 100%. The oligonucleotides which were used to produce the abovementioned variants are also specified in the table.

whole citrate blood = assay: Thrombelastography (ROTEG) of coagulation and fibrinolysis in whole citrate blood; parameters: species or system human
From the text: To do this, what are termed thrombelasto-grams were plotted. Thrombelastography is a current method for measuring coagulation and fibrinolysis. The method measures the change in the viscosity of the blood by the change in the resistance to rotation of a plunger which is present in the blood (Calatzis et al., 2000). […] Thrombelastograms quantify important parameters of haemostasis: • clotting time (time between the initiation of coagulation and the beginning of a measurable change in the viscosity of the blood, CT) • stability of the thrombus (maximum amplitude, maximum clot firmness, MCF) • fibrinolysis time (time between the beginning of a measurable change in blood viscosity and achievement of the starting value prior to the clotting, lysis time, LT).
The ROTEG® instrument supplied by Pentapharm GmbH, Munich, was used for the measurements which are shown. FIGS. 5 and 6 show the thrombelastograms of whole citrate blood after the addition of Ca^2+ (Starteg reagent, from Pentapharm GmbH) and thromboplastin phospholipid (Integ reagent, from Pentapharm GmbH). These reagents are used to induce coagulation. […] This is made clear by […]

[3] = Analytical gel filtration run for multimeric, high molecular weight aggregates; assay type: physicochemical; details: 20 mM sodium phosphate, pH 8.0, 300 mM NaCl
From the text: These modified tridegins were produced by site-directed mutagenesis of the cysteines present in the wild-type tridegin. The aim of this mutagenesis was to replace, in a step-wise manner, the cysteine residues which are suitable for forming intermolecular disulfide bridges. The tendency to form disulfide bridges, and the aggregation of the end product which accompanies it, were detected by carrying out appropriate chromatographic analyses of the original transglutaminase inhibitor (SEQ ID No. 1) in the presence or absence of reducing agents (e.g. mercaptoethanol and DTT). Thus, in one gel filtration run (on an Amersham-Pharmacia HiPrep 26/60 Sephacryl S200 HR column; 20 mM sodium phosphate, pH 8.0, 300 mM NaCl; 1 ml/min) the purified, recombinant tridegin polypeptide had approximately an 80% content of multimeric, high molecular weight aggregates.

[4] = Table 2, recombinant tridegin polypeptide normalized to 100%
[5] = Table 4, Cys variants, wild-type tridegin polypeptide normalized to 100%

## C[C@@H]1CCC/C=C\C(=O)Cc2cc(O)cc(O)c2C(=O)O1 [ZG-1400]
Factor XIIIa [1]
  IC50: 5.7 µM

## C/C=C/C/C=C/CCC(=O)[C@H]1O[C@H]1C(N)=O [Cerulenin]
Factor XIIIa [1]
  IC50: 29 µM

B1: SEQ ID No. 1: recombinant wild-type tridegin polypeptide expressed in and purified from Escherichia coli (protein)
chain: MKLLPCKEWHQGIPNPRCWCGADLECAQDQYCAFIPQCRPRSELIKPMDDIYQRPVEFPNLPLKPREE
Factor XIIIa [2]; [4]
  Relative inhibitory effect (%): 100%
Factor XIIIa [2]; [5]
  Relative inhibitory effect (%): 100%
Factor XIIIa [2]; purified recombinant tridegin polypeptide from Escherichia coli, FIG. 3
  IC50: 2 to 4 µM
Whole citrate blood; FIG. 5 A and B, 190 seconds in the absence of inhibitor
  clotting time (CT): 380 s
Whole citrate blood; lower amplitude and increased rate of fibrinolysis
  effect on fibrinolysis brought about by tPA and urokinase: accelerate and improve the fibrinolysis
[3]; Sephacryl S200 HR, no reducing agent
  content of multimeric, high molecular weight aggregates: ~80%
[3]; reducing conditions: 1.5 mM DTT
  content of the aggregates: < 20%

B2: D50A, P55L: spontaneously arising double mutant of tridegin SEQ ID No. 1, expressed in Escherichia coli (protein)
chain: B1 chain with D50A, P55L
Factor XIIIa [2]; [4]
  Relative inhibitory effect (%): 84%

B3: F58A: modified tridegin, XnY mutation of SEQ ID No. 1, expressed in Escherichia coli (protein)
chain: B1 chain with F58A
Factor XIIIa [2]; [4]
  Relative inhibitory effect (%): 60%

B4: N60A: modified tridegin, XnY mutation of SEQ ID No. 1, expressed in Escherichia coli (protein)
chain: B1 chain with N60A
Factor XIIIa [2]; [4]
  Relative inhibitory effect (%): 68%

B5: P65A: modified tridegin, XnY mutation of SEQ ID No. 1, expressed in Escherichia coli (protein)
chain: B1 chain with P65A
Factor XIIIa [2]; [4]
  Relative inhibitory effect (%): 51%

B6: K02A: modified tridegin, XnY mutation of SEQ ID No. 1, expressed in Escherichia coli (protein)
chain: B1 chain with K2A
Factor XIIIa [2]; [4]
  Relative inhibitory effect (%): 113%

B7: K07A: modified tridegin, XnY mutation of SEQ ID No. 1, expressed in Escherichia coli (protein)
chain: B1 chain with K7A
Factor XIIIa [2]; [4]
  Relative inhibitory effect (%): 90%

B8: C06A: tridegin modified by replacement of a cysteine residue, expressed in Escherichia coli (protein)
chain: B1 chain with C6A
Factor XIIIa [2]; [5]
  Relative inhibitory effect (%): 72%

B9: C18A: tridegin modified by replacement of a cysteine residue, expressed in Escherichia coli (protein)
chain: B1 chain with C18A
Factor XIIIa [2]; [5]
  Relative inhibitory effect (%): 93%

B10: C20A: tridegin modified by replacement of a cysteine residue, expressed in Escherichia coli (protein)
chain: B1 chain with C20A
Factor XIIIa [2]; [5]
  Relative inhibitory effect (%): 63%

B11: C26A: tridegin modified by replacement of a cysteine residue, expressed in Escherichia coli (protein)
chain: B1 chain with C26A
Factor XIIIa [2]; [5]
  Relative inhibitory effect (%): 82%

B12: C32A: tridegin modified by replacement of a cysteine residue, expressed in Escherichia coli (protein)
chain: B1 chain with C32A
Factor XIIIa [2]; [5]
  Relative inhibitory effect (%): 86%

B13: C26A; +C38A: tridegin modified by replacement of two cysteine residues, expressed in Escherichia coli (protein)
chain: B1 chain with C26A, C38A
Factor XIIIa [2]; [5]
  Relative inhibitory effect (%): 80%
